One block for each molecule: values may come before it.
Experiments:
[1] = target: Gαo with the Gln52 mutation; assay: co-IP; N2a cells co-transfected 24 h with Gαo-GFP constructs and His6-RGS19 (1:1) or mRFP-Gβ1/mRFP-Gγ3 (1:1:1); lysate in GST-lysis buffer (20 mM Tris-HCl pH 8.0, 1% Triton X-100, 10% glycerol in PBS); Gαo-GFP precipitated with GST-tagged GFP nanobody and glutathione Sepharose 4B overnight at 4 °C; Western blot against GFP, mRFP, His6; blots quantified, normalised to the precipitated Gαo, 5 experiments
[2] = target: Gαo[Gln52Pro] and Gαo[Gln52Arg]; assay: as above

fold reduction of co-precipitation against wild-type Gαo [1]: 2 to 4 fold
Molecule: Gβ1γ3 heterodimer (mRFP-Gβ1 and mRFP-Gγ3) (from UniProt P62873 1-340; P63215 1-75) (complex)

fold reduction of co-precipitation against wild-type Gαo [2]: 2 to 3 fold
B1: His6-RGS19 (natural protein)
chain: MPTPHEAEKQITGPEEADRPPSMSSHDTASPAAPSRNPCCLCWCCCCSCSWNQERRRAWQASRESKLQPLPSCEVCATPSPEEVQSWAQSFDKLMHSPAGRSVFRAFLRTEYSEENMLFWLACEELKAEANQHVVDEKARLIYEDYVSILSPKEVSLDSRVREGINKKMQEPSAHTFDDAQLQIYTLMHRDSYPRFLSSPTYRALLLQGPSQSSSEA

Reference: PMC8535069
